Patent US12139520B2 (priority 2020, dated 2024)
Numbered stars: 1 amine (or outer) side, 2 acyl side, 3 side chain; on linkers, the order of the positions; unused ones are H or OH. Bridge positions count the residues as written; N and C are the ends. Square brackets hold non-standard residues; d marks the D form. Side chains are listed from the residue outwards. Ends that are not written are not given here. * marks the point of attachment. C20 diacid = O=C(O)CCCCCCCCCCCCCCCCCCC(=O)*; γGlu = O=C(O)[C@H](CCC(=O)[*:2])N[*:1]; Hyp = O=C(O)[C@@H]1C[C@@H](O)CN1; AEEA = NCCOCCOCC(=O)O

Key:
hAMY3R = biological target: T1, hAMY3R (human, UniProt P30988); test: cell-based or functional assay
T1 sequence 1: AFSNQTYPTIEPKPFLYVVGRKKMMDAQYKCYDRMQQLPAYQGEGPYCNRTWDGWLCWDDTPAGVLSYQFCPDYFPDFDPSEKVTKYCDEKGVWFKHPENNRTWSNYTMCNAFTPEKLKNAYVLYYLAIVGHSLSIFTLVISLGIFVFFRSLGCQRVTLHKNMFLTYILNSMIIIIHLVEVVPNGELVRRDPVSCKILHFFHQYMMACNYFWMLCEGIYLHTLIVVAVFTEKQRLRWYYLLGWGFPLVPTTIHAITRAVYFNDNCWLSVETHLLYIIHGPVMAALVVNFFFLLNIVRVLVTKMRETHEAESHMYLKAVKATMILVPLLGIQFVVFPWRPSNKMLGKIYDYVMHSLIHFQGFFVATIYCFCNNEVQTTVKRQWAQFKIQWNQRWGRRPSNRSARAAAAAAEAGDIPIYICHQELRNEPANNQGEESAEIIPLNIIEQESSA
T1 sequence 2: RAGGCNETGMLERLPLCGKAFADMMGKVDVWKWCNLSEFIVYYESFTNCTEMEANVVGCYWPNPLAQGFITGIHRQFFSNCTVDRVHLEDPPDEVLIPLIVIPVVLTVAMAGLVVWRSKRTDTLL

hAM1R = hAM1R (human, UniProt Q16602); test: cell-based or functional assay

B1: SEQ ID NO: 72 (peptide)
peptide: KCQTATCTVQRLAEQIYQFTDKDKDNVAPPTNVGSNGX
modifications: not fully specified; C20DA-yGlu at N-terminal; Hyp at X38
- hAMY3R EC50 (cAMP) (hAMY3R): 0.013 nM
- hAM1R EC50 (cAMP) (hAM1R): > 5000 nM

B2: SEQ ID NO: 74 (peptide)
peptide: KCNTATCTVQRLAK([AEEA-AEEA-γGlu-C20 diacid])QIYQFTDKDKDNVAPPTNVGSNG[Hyp]-NH2
modifications: disulfide 2-7 (inferred); not fully specified; ends not checked
- hAMY3R EC50 (cAMP) (hAMY3R): 0.013 nM
- hAM1R EC50 (cAMP) (hAM1R): > 5000 nM

B3: SEQ ID NO: 55 (peptide)
peptide: {C20 diacid-γGlu}-KCNTATCTVERLAHQIYQFTDKDKDNVAPPTNVGSNG[Hyp]-NH2
modifications: disulfide 2-7 (inferred); ends not checked
- hAMY3R EC50 (cAMP) (hAMY3R): 0.012 nM
- hAM1R EC50 (cAMP) (hAM1R): 63.8 nM

B4: SEQ ID NO: 60 (peptide)
peptide: {C20 diacid-γGlu}-KCNTATCTVQRLAHQIYQFTDKDKDNVAPPTKVGSNG[Hyp]-NH2
modifications: disulfide 2-7 (inferred); not fully specified; ends not checked
- hAMY3R EC50 (cAMP) (hAMY3R): 0.012 nM
- hAM1R EC50 (cAMP) (hAM1R): > 5000 nM

B5: SEQ ID NO: 61 (peptide)
peptide: {C20 diacid-γGlu}-KCNTATCTVQRLAHQIAQFTDKDKDNVAPPTNVGSNG[Hyp]-NH2
modifications: disulfide 2-7 (inferred); not fully specified; ends not checked
- hAMY3R EC50 (cAMP) (hAMY3R): 0.012 nM
- hAM1R EC50 (cAMP) (hAM1R): > 5000 nM

B6: SEQ ID NO: 64 (peptide)
peptide: KCNTATCTVQRLAHQIYQFTDADKDNVAPPTNVGSNG[Hyp]-NH2
modifications: disulfide 2-7 (inferred); ends not checked
- hAMY3R EC50 (cAMP) (hAMY3R): 0.012 nM
- hAM1R EC50 (cAMP) (hAM1R): > 5000 nM

B7: SEQ ID NO: 65 (peptide)
peptide: KCNTATCTVQRLAHQIYQFDKDKDNVAPPTNVGSNG[Hyp]-NH2
modifications: disulfide 2-7 (inferred); ends not checked
- hAMY3R EC50 (cAMP) (hAMY3R): 0.012 nM
- hAM1R EC50 (cAMP) (hAM1R): > 5000 nM

B8: SEQ ID NO: 75 (peptide)
peptide: KCNTATCTVQRLAHQIYQFTDKDKDNVAPPTNVGSNG[Hyp]-NH2
modifications: disulfide 2-7 (inferred); ends not checked
- hAMY3R EC50 (cAMP) (hAMY3R): 0.013 nM
- hAM1R EC50 (cAMP) (hAM1R): > 5000 nM

B9: SEQ ID NO: 66 (peptide)
peptide: KCNTATCTVQRLAEQIYQFTDKDKDNVSPPTNVGSNG[Hyp]-NH2
modifications: disulfide 2-7 (inferred); ends not checked
- hAMY3R EC50 (cAMP) (hAMY3R): 0.012 nM
- hAM1R EC50 (cAMP) (hAM1R): > 5000 nM

B10: SEQ ID NO: 57 (peptide)
peptide: {C20 diacid-γGlu}-KCNTATCTVQRLAHQIYQFSDKDKDNVAPPTNVGSNG[Hyp]-NH2
modifications: disulfide 2-7 (inferred); ends not checked
- hAMY3R EC50 (cAMP) (hAMY3R): 0.012 nM
- hAM1R EC50 (cAMP) (hAM1R): 590 nM

B11: SEQ ID NO: 7 (peptide)
peptide: KCNTATCTVQRLAAQIYQFTDKDKDNVAPPTNVGSNG[Hyp]-NH2
modifications: disulfide 2-7 (inferred); ends not checked
- hAMY3R EC50 (cAMP) (hAMY3R): 0.006 nM
- hAM1R EC50 (cAMP) (hAM1R): > 5000 nM

B12: SEQ ID NO: 58 (peptide)
peptide: KCNTATCATQRLANFLVHSSNNFGAILSSTKVGSNTY
- hAMY3R EC50 (cAMP) (hAMY3R): 0.012 nM
- hAM1R EC50 (cAMP) (hAM1R): > 5000 nM

B13: SEQ ID NO: 59 (peptide)
peptide: KCNTATCATQRLANFLVHSSNNFGAILPSTKVGSNGY
- hAMY3R EC50 (cAMP) (hAMY3R): 0.012 nM
- hAM1R EC50 (cAMP) (hAM1R): > 5000 nM

B14: SEQ ID NO: 53 (peptide)
peptide: KCNTATCTVQRLAHQIYQFTDKDKDNVAAPTNVGSNG[Hyp]-NH2
modifications: disulfide 2-7 (inferred); ends not checked
- hAMY3R EC50 (cAMP) (hAMY3R): 0.011 nM
- hAM1R EC50 (cAMP) (hAM1R): > 5000 nM

B15: SEQ ID NO: 69 (peptide)
peptide: {C20 diacid-γGlu}-KCNTATCTVQRLAHQIAQFTDKDKDNVAPPTNVGSNS[Hyp]-NH2
modifications: disulfide 2-7 (inferred); not fully specified; ends not checked
- hAMY3R EC50 (cAMP) (hAMY3R): 0.013 nM
- hAM1R EC50 (cAMP) (hAM1R): 680 nM

B16: SEQ ID NO: 5 (peptide)
peptide: {C20 diacid-γGlu}-KCNTATCTVQRLADQIYQFTDKDKDNVAPPTNVGSNG[Hyp]-NH2
modifications: disulfide 2-7 (inferred); ends not checked
- hAMY3R EC50 (cAMP) (hAMY3R): 0.006 nM
- hAM1R EC50 (cAMP) (hAM1R): > 5000 nM

B17: SEQ ID NO: 52 (peptide)
peptide: KCNTATCTVQRLAHQIYQFTDKDKDAVAPPTNVGSNG[Hyp]-NH2
modifications: disulfide 2-7 (inferred); ends not checked
- hAMY3R EC50 (cAMP) (hAMY3R): 0.011 nM
- hAM1R EC50 (cAMP) (hAM1R): > 5000 nM

B18: SEQ ID NO: 62 (peptide)
peptide: {C20 diacid-γGlu}-KCNTSTCTVQRLAHQIAQFTDKDKDNVAPPTNVGSNG[Hyp]-NH2
modifications: disulfide 2-7 (inferred); not fully specified; ends not checked
- hAMY3R EC50 (cAMP) (hAMY3R): 0.012 nM
- hAM1R EC50 (cAMP) (hAM1R): > 5000 nM

B19: SEQ ID NO: 54 (peptide)
peptide: GCRFGTCTVQRLAHFLYQFTDKDKDNVAPRTNVGPQGY
- hAMY3R EC50 (cAMP) (hAMY3R): 0.012 nM
- hAM1R EC50 (cAMP) (hAM1R): 46.2 nM

B20: SEQ ID NO: 56 (peptide)
peptide: GCRFGTCTVQRLAHFLYQFTDKDKDNVAPRTNVGSNTY
- hAMY3R EC50 (cAMP) (hAMY3R): 0.012 nM
- hAM1R EC50 (cAMP) (hAM1R): 103 nM

B21: SEQ ID NO: 6 (peptide)
peptide: KCNTATCTVQRLAEQIYQFTDKDKDNVAPPTNVGSK([AEEA-AEEA-γGlu-C20 diacid])G[Hyp]-NH2
modifications: disulfide 2-7 (inferred); ends not checked
- hAMY3R EC50 (cAMP) (hAMY3R): 0.006 nM
- hAM1R EC50 (cAMP) (hAM1R): > 5000 nM

B22: SEQ ID NO: 70 (peptide)
peptide: GCRFGTCTVQRLAHQIYQFTDKDKDNVAPRTNVGPQG[Hyp]-NH2
modifications: disulfide 2-7 (inferred); ends not checked
- hAMY3R EC50 (cAMP) (hAMY3R): 0.013 nM
- hAM1R EC50 (cAMP) (hAM1R): 2980 nM

B23: SEQ ID NO: 50 (peptide)
peptide: {C20 diacid-γGlu}-KCNTSTCTVQRLAHQIYQFTDKDKDNVAPPTNVGSNG[Hyp]-NH2
modifications: disulfide 2-7 (inferred); ends not checked
- hAMY3R EC50 (cAMP) (hAMY3R): 0.011 nM
- hAM1R EC50 (cAMP) (hAM1R): > 5000 nM

B24: SEQ ID NO: 68 (peptide)
peptide: {C20 diacid-γGlu}-KCNFATCTVQRLAHQIYQFTDKDKDNVAPPTEVGSNG[Hyp]-NH2
modifications: disulfide 2-7 (inferred); not fully specified; ends not checked
- hAMY3R EC50 (cAMP) (hAMY3R): 0.013 nM
- hAM1R EC50 (cAMP) (hAM1R): 255 nM

B25: SEQ ID NO: 73 (peptide)
peptide: {C20 diacid-γGlu}-KCNTATCTVQRLAEQIYQFTDKDKDNVAPPTQVGSNG[Hyp]-NH2
modifications: disulfide 2-7 (inferred); not fully specified; ends not checked
- hAMY3R EC50 (cAMP) (hAMY3R): 0.013 nM
- hAM1R EC50 (cAMP) (hAM1R): > 5000 nM

B26: SEQ ID NO: 67 (peptide)
peptide: {C20 diacid-γGlu}-KCNFATCTVQRLAHQIYQFTDKDKDNVAPRTEVGSNG[Hyp]-NH2
modifications: disulfide 2-7 (inferred); not fully specified; ends not checked
- hAMY3R EC50 (cAMP) (hAMY3R): 0.013 nM
- hAM1R EC50 (cAMP) (hAM1R): 116 nM

B27: SEQ ID NO: 51 (peptide)
peptide: {C20 diacid-γGlu}-KCNTATCTVQRLAEQIYQFTDKDKDNVAPPTNVGSNG[Hyp]-NH2
modifications: disulfide 2-7 (inferred); ends not checked
- hAMY3R EC50 (cAMP) (hAMY3R): 0.011 nM
- hAM1R EC50 (cAMP) (hAM1R): > 5000 nM

B28: SEQ ID NO: 71 (peptide)
peptide: {C20 diacid-γGlu}-KCNTATCTVQRLAHQIAQYTDKDKDNVAPPTNVGSNG[Hyp]-NH2
modifications: disulfide 2-7 (inferred); not fully specified; ends not checked
- hAMY3R EC50 (cAMP) (hAMY3R): 0.013 nM
- hAM1R EC50 (cAMP) (hAM1R): > 5000 nM

B29: SEQ ID NO: 63 (peptide)
peptide: {C20 diacid-γGlu}-KCNTATCTVQRLAEQIYQFTDKDKDNVAPPTAVGSNG[Hyp]-NH2
modifications: disulfide 2-7 (inferred); not fully specified; ends not checked
- hAMY3R EC50 (cAMP) (hAMY3R): 0.012 nM
- hAM1R EC50 (cAMP) (hAM1R): > 5000 nM
